Assay results taken from patent US20260183411A1, “TARGETING SORTILIN” (priority 2024, published 2026).
Blank lines part the entries; values can stand above or below the molecule they belong to. Bridges are numbered along the chain shown (N, C = ends). Where no end group is shown, it is not given here. Side-chain parts run from the residue outwards. [ ]: non-standard residue; d: D form. tBuAla = CC(C)(C)C[C@H](N)C(=O)O; Tle = CC(C)(C)[C@H](N)C(=O)O; linker = not defined here; Nle = CCCC[C@H](N)C(=O)O; siRNA = not defined here

Legend:
[1] = CMC formulation buffer screen; assay type: physicochemical; conditions: 0.5 mg/mL
Protocol: Exemplary conjugate agents (e.g., sortilin binding agents), referred to in the present Example as “peptide drug conjugates” or “PDCs” were assessed in a formulation screen to determine an appropriate vehicle for in vivo studies and to assess precipitation risk. PDC solutions were made up to 0.5 mg/mL in the following buffers: 25 mM Histidine 10% sucrose pH 7, 50 mM acetate/acetic acid, 10% sucrose pH 5, 1×PBS pH 7.4, Saline, 50 mM HEPES 10% sucrose pH 7. Solubility was assessed using a shake flask method and the test compound concentration of the filtrate was confirmed using HPLC-UV.
The following buffers were screened: 25 mM Histidine 10% sucrose pH 7, 50 mM acetate/acetic acid, 10% sucrose pH 5, 1×PBS pH 7.4, Saline, 50 mM HEPES 10% sucrose pH 7. The PDCs were soluble in all buffers tested (Table 1), and we proceed to use 25 mM Histidine, 10% sucrose pH 7 as our buffer of choice for our in vivo studies.

[2] = Murine plasma stability assay; assay type: in vitro ADME; conditions: mouse, 2 μM, 37° C., read-out: Murine plasma stability assay, T1/2
Protocol: Frozen plasma was thawed at 37° C. and centrifuged at 4000 rpm to remove any clots and transferred to 96-well reaction plates by WuXi AppTec. Test compounds were added to the reaction plate at a final concentration of 2 μM and either stopped immediately or incubated at 37° C. for 5 minutes, 10 minutes, 30 minutes, 60 minutes, or 120 minutes. At the end of incubation, stop solution consisting of 200 ng/mL tolbutamide and 200 ng/mL labetalol in ACN was added to precipitate protein and mixed thoroughly. Samples were then transferred to a bioanalysis plate and shaken for 10 minutes prior to HPLC-MS/MS analysis of percent remaining compound.
Table 14 tabulates the plasma stability for each of the three PDCs tested.

Human SORT1 (78-755)-His = target: T1, Human SORT1 (78-755)-His (human, UniProt Q99523 78-755); assay: SPR (Biacore 8K), SORT1 on CM5 chip, siRNA-peptide conjugate as analyte, 1:1 model
T1 construct: range 78-755; Amine-coupled to CM5 chip for SPR; Two suppliers are named (Acrobiosystems, GenScript)
T1 sequence (looked up): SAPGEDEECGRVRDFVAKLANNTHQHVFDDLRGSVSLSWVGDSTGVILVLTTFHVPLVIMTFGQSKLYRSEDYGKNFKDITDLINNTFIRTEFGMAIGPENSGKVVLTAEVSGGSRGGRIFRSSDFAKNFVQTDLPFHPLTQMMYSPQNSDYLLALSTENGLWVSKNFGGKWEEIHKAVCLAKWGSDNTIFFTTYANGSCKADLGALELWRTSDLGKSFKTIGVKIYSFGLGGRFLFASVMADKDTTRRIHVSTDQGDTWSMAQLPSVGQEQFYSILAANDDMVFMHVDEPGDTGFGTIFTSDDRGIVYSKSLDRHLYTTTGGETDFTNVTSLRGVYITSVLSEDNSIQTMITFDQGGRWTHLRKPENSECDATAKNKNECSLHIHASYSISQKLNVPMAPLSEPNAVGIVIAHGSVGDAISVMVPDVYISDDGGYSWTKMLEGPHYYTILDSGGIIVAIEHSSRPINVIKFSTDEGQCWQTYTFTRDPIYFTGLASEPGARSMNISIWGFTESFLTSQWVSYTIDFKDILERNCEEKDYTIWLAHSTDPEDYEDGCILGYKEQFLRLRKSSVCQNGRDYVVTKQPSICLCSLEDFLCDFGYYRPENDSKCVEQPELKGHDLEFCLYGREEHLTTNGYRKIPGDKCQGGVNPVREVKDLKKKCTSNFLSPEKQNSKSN
Protocol: SPR analysis was performed on Series S CM5 chips (Cytiva) using a Biacore 8K instrument (Cytiva). Sensorgrams were double-referenced by subtracting the response on both a reference flow cell and a blank sample. Human SORT1 (78-755)-His (Acrobiosystems), human SORT1 (78-755)-His(GenScript), mouse SORT1 (76-753)-His (R&D Systems), rat SORT1 (76-752)-His (GenScript), and cyno SORT1 (76-753)-His (GenScript) were diluted to 20-60 μg/mL in 10 mM sodium acetate pH 4.5 buffer and immobilized onto Series S CM5 chips using amine coupling at a flow rate of 10 μL/min for 45-100 s.
Ten start-up cycles and a blank cycle preceded each analysis run. The runs were performed by sequential injections of analyte (0-20 nM, 3-fold serial dilutions) with a 90 s association and 900 s dissociation at a flow rate of 30 μL/min, followed by two regeneration cycles with 2 M MgCl2 for 90 s at a flow rate of 10 μL/min. […] Five start-up cycles and a blank cycle preceded each analysis run. The runs were performed by sequential injections of analyte (0-25 nM) with a 150 seconds (s) association and 300 s dissociation at a flow rate of 30 μL/min, followed by a regeneration with 2 M MgCl₂ for 200 s at a flow rate of 10 μL/min. The kinetic rate constants (kₐ and kd) and the equilibrium binding constant (Kd) were calculated using a 1:1 kinetic binding model on the Biacore Insight Evaluation Software (Cytiva).
SPR analysis was performed on Series S CM5 chips (Cytiva) using a Biacore 8K instrument (Cytiva). Sensorgrams were double-referenced by subtracting the response on both a reference flow cell and a blank sample. The SPR analysis was conducted using four different SORT1 species: Human SORT1, Mouse SORT1, Rat SORT1, and Cyno SORT1. The samples were prepared according to the general procedure described above herein. The kinetic rate constants (ka and […]) and the equilibrium binding constant (Kd) were calculated using a 1:1 kinetic binding model on the Biacore Insight Evaluation Software (Cytiva).

Molecule: CC[C@H](C)[C@@H]([C@@H](CC(=O)N1CCC[C@H]1[C@H](OC)[C@@H](C)C(=O)N[C@H](C)[C@@H](O)c1ccccc1)OC)N(C)C(=O)[C@@H](NC(=O)[C@H](C(C)C)N(C)C(=O)OCc1ccc(NC(=O)[C@H](CCCNC(N)=O)NC(=O)[C@@H](NC(=O)CCCC(=O)NCCC(=O)N(C)CC(=O)N(C)CC(=O)N(C)CC(=O)N(C)CC(=O)N[C@@H](C)C(=O)N2CCC[C@H]2C(=O)N[C@@H](CCCNC(=N)N)C(=O)N[C@@H](Cc2c[nH]c3ccccc23)C(=O)N[C@@H](CC(=O)O)C(=O)N[C@@H](C)C(=O)N2CCC[C@H]2C(=O)N[C@@H](CC(C)C)C(=O)N[C@@H](CCCNC(=N)N)C(=O)N[C@@H](CC(=O)O)C(=O)N2CCC[C@H]2C(=O)N[C@@H](C)C(=O)N[C@@H](CC(C)C)C(=O)N[C@@H](CCCNC(=N)N)C(=O)N[C@@H](CCC(N)=O)C(=O)N[C@@H](CC(C)C)C(=O)N[C@@H](CC(C)C)C(=O)O)C(C)C)cc1)C(C)C [PRGN_WT_PDC]
result (buffer screening) ([1]; 25 mM Histidine 10% sucrose pH 7): clear solution | result (buffer screening) ([1]; 50 mM HEPES 10% sucrose pH 7): clear solution | result (buffer screening) ([1]; 50 mM acetate/acetic acid, 10% sucrose pH 5): clear solution | result (buffer screening) ([1]; 1x PBS pH 7.4): clear solution | result (buffer screening) ([1]; Saline): clear solution | half-life [2]: 17.1 min

Kd (Human SORT1 (78-755)-His): 0.108 µM
B1: SORT1 peptide 3 conjugate (peptide)
peptide: RWCENK([linker-siRNA])R[Nle]FTCRQ[Tle][tBuAla]
modifications: disulfide 3-11 (inferred); not fully specified; printed as RWCENKR(Nle)FTCRQ(B13)(F02); reading uncertain
notes: also called SORT1 peptide 3 siRNA conjugate
